This note sets out measurements from patent US5763271A, “Vasodilatory and immune suppressant peptides” (The President and Fellows of Harvard College, priority 1994, dated 1998).

Where no end group is shown, it is not given here.

Assay [1] concerns human macrophages. Briefly: H2O2 production by IFN-γ activated macrophages (scopoletin fluorometric assay). Format: cell-based. The following applies: 3 hrs preincubation, IFN-γ 200 units/ml, 3 days.
Procedure: Monocytes obtained by leukophoresis of healthy volunteers were purified on Ficoll-hypaque and Percoll (Pharmacia, Piscataway, N.J.) gradients and placed into microtiter well (5×10^5 /well) in RPMI-1640 (GIBCO, Grand Island, N.Y.) with 5% pooled normal human serum and 1% gentamycin (M. A. Bioproducts, Walkinville, Md.). The cells were greater than 95% macrophages as judged by esterase staining. […] After one day in culture, non-adherent cells were rinsed away and the macrophages were treated, e.g., with human CGRP, Calcitonin, or LP as described below. Following treatment, the macrophages were incubated for three days with a concentration of from 100 to 400 units interferon gamma (Amgen Biologicals, Thousand Oaks, Calif.), in medium with 15% pooled normal human serum, at which time the H2 O2 concentration in the cells was determined.
H2 O2 production by macrophages was determined by fluorometric assay using the fluorophore scopoletin (de la Harpe et al., J. Immunol. Methods 78: 323 (1985)). […] The amount of H2 O2 released per culture is determined as nanomoles H2 O2. […]
Human macrophage monolayers were pretreated for three hours with varying concentrations of human CGRP. […] The amount Of H2 O2 produced by the cells was then determined according to the above procedure. […]
Assay [2] concerns Leishmania major. The assay is described as follows: Exacerbation of cutaneous leishmaniasis (footpad lesion size). Type of assay: in vivo, CBA mice. The following applies: 80 pg admixed with 10^5 L. major promastigotes, subcutaneous. As for the experimental part: In order to assay for immunosuppressive activity, the recombinant LP protein described in subsection A above was tested for the ability to exacerbate infection of mice with Leishmania major substantially as described in Titus et al. (1988) Science 239, 1306 and Theodos et al. (1991) Infect. Immun. 59, 1592-1598.
Briefly, groups of 4 CBA mice each were injected subcutaneously in the footpad with 10^5 L. major promastigotes alone or 10^5 parasites admixed with 80 pg of LP protein. Lesion development was followed by measuring the increase in thickness of the injected footpad compared to the thickness of the contralateral uninjected control footpad.

The test system of assay [3] is RAW 264.7 cell line. Briefly: Inhibition of nitric oxide production by LPS-stimulated macrophages (Greiss reaction). The conditions noted are these: 10^6 to 10^1 pg/ml; LPS 1 μg/ml; nitrite 2 hours later. Format: cell-based. The method, then: Macrophage cells from the RAW 264.7 cell line (Drapier et al. (1988) J. Immunol. 140:2829) were preincubated with various concentrations of LP protein as indicated in FIG. 8. The cells were then stimulated with 1 μg/ml lipopolysaccharide […] (LPS) and NO production was monitored 2 hours later by measuring nitrite in the supernatants of the cultures. Nitrite was measured by the method described in Ding et al. (1988) J. Immunol. 141:2407. Briefly, levels of nitrite in the supernatants of the cultures were assessed by the Greiss reaction as follows. 50 μl cell culture supernatants were mixed with 50 μl of Greiss reagent [1% sulfanilamide, 0.1% N-(1-naphthyl)ethyl-enediamine dihydrochloride in 2.5% phosphoric acid] and incubated at room temperature for 10 minutes. Absorbance was measured at 570 nm. Concentration of NO2 in the supernatant was determined by comparison to a standard curve generated with dilutions of NaNO2.

On to “calcitonin (CGNLSTCMLGTYTQDFNKFHTFPQTAIGVGAP; ends and bridges not checked; cysteine pairing not given here; UniProt P01258 85-116, looked up) [neuropeptide derived from the same gene as CGRP, available commercially]”, for which, in assay [1], the “inhibition of H2O2 production by macrophages” value is on record as “to a degree similar to that seen with CGRP”.

B1: recombinant LP protein: LP protein, substantially the amino acid sequence of SEQ ID NO:4, expressed in E. coli as a polyHis fusion protein (protein)
chain: MKYSLNNLHFLVDVAEGCDATCQFRKAIEDCRKKAHHSDVLQTSVQTTATFTSMDTSQLPGSGVFKECMKEKAKEFKAGK
modifications: polyHis tag
For B1, in assay [2], the “effect on Leishmania infection (size of footpad lesions)” value is reported as “greatly exacerbated”. In addition, the “NO production by macrophages preincubated with the protein” value in assay [3] is reported as “significant decrease”.
